In paper PMC7925178:

Legend:
[1] = molecular target: AMC009 SOSIP.v5.2 trimer (HIV-1 (subtype B)); test: native gel or EMSA
[2] = molecular target: AMC009 SOSIP.v5.2 trimer (HIV-1 (subtype B)); test: negative-stain electron microscopy; NS-EM, reference-free 2D class averages of purified SOSIP trimers; percent native-like trimers
[3] = molecular target: AMC011 SOSIP.v5.2 trimer (HIV-1 (subtype B)); test: native gel or EMSA
[4] = molecular target: AMC011 SOSIP.v5.2 trimer (HIV-1 (subtype B)); test: negative-stain electron microscopy; NS-EM, reference-free 2D class averages of purified SOSIP trimers; percent native-like trimers
[5] = molecular target: AMC009 SOSIP.v4.2-D7324 trimer (HIV-1 (subtype B)); test: as above
[6] = molecular target: AMC011 SOSIP.v4.2 trimer (HIV-1 (subtype B)); test: native gel or EMSA

AMC009 SOSIP.v5.2 trimer (complex)
stoichiometry N [1]: 3
% native-like trimers [2]: 100%

AMC011 SOSIP.v5.2 trimer (complex)
stoichiometry N [3]: 3
% native-like trimers [4]: 100%

AMC009 SOSIP.v4.2-D7324 trimer (complex)
% native-like trimers [5]: 100%

AMC011 SOSIP.v4.2 trimer (complex)
stoichiometry N [6]: 3
